# Measurements taken from the supplement of paper PMC10567573.
# ± gives the standard deviation.
# Experiment: protein stability index of a GFP-peptide fusion (GPS, HEK-293T) (PSI 1-6); higher = more stable
# [1] = treatment: DMSO, c terminus: a fixed tail appended
# [2] = treatment: MLN4924 1 uM, 8 h, c terminus: a fixed tail appended
# [3] = treatment: DMSO, c terminus: native
# [4] = treatment: MLN4924 1 uM, 8 h, c terminus: native
# 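Note: 24-mer peptide tiles fused after GFP, lentivirally expressed, FACS-sorted into six equal bins by GFP/DsRed ratio, decoded by Illumina sequencing, PSI is the read-weighted mean bin number.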
Sequence,protein stability index [1],protein stability index [2],protein stability index [3],protein stability index [4]
AAAFPTEDSRTSKESMSEADRAQK [EHMT1],5.59 ± 0.25,5.514 ± 0.053,–,–
AADGETNGSCENSDASSHANAAKH [EHMT1],5.51 ± 0.12,5.35 ± 0.14,–,–
AAIGVTTSPVLPSLIQLLGRNFIL [HACD3],2.67 ± 0.19,2.55 ± 0.6,–,–
AAMEGATLDQTTSEEAPGGTELIQ [HDAC6],5.64 ± 0.12,5.47 ± 0.22,–,–
AARPDVKCVVHIHTPAGAAVSAMK [ADD1],2.95 ± 0.28,3.11 ± 0.28,–,–
AAVVTSPPPTTAPHKERYFDRVDE [ADD1],4.77 ± 0.44,4.73 ± 0.34,–,–
ADADCFVCVFLSHGEGNHIYAYDA [CASP6],2.82 ± 0.66,2.81 ± 0.75,–,–
ADDESLLRTSNGQPVKTAGEITQH [DNAAF3],5.26 ± 0.35,5.26 ± 0.2,–,–
ADDPTSGFSSIPDAFWWAVVTMTT [KCNA3],2.94 ± 0.92,2.6 ± 0.4,–,–
ADGFGDNPFYHCLVAEILPAPGKL [SAT2],2.27 ± 0.14,2.37 ± 0.42,–,–
ADLSSGSSGEDDDFKSCPQGPQGR [PWWP2B],5.36 ± 0.15,5.52 ± 0.13,–,–
ADPMDWSPSNVQKWLLWTEHQYRL [SPDEF],2.47 ± 0.21,2.43 ± 0.35,–,–
ADQWKSSNKSLVEALGLEAEGAVP [RHOBTB1],5.1 ± 0.17,4.83 ± 0.22,–,–
ADRCSPKEDQAWDGASQDCPPLPA [FBXO34],5.27 ± 0.18,4.99 ± 0.14,–,–
ADSGADPKGEPGSKQSPPMASSPI [FBF1],5.44 ± 0.26,5.51 ± 0.15,–,–
ADSQITTIGNLVPQKTYSVKVLAF [PTPRD],2.46 ± 0.56,2.17 ± 0.28,–,–
ADTKKRHTPRGHAESTSNRQPRKQ [SMOC2],5.34 ± 0.2,5.29 ± 0.15,–,–
AEAEPEDQDEGEWGLDQEQVFSLG [ZBED1],5.34 ± 0.44,5.52 ± 0.44,–,–
AELQCEVAALREEQKVLSRLVESL [RASAL3],4.09 ± 0.23,3.94 ± 0.37,–,–
AFPGASHESSGNPPLRVIVKDALF [RHOBTB3],2.96 ± 0.28,3.25 ± 0.41,–,–
AFQLLRRFVQAEGRRATLQRLVEA [TRADD],2.19 ± 0.15,2.26 ± 0.38,–,–
AGEGLPQVYYFGPCGKYNAMVLEL [CSNK1G1],3.19 ± 0.65,2.65 ± 0.94,–,–

Sequence,protein stability index [1],protein stability index [2],protein stability index [3],protein stability index [4]
AGNDDSFGSLPSPKELSSFSFSMK [DLC1],3.75 ± 0.2,3.87 ± 0.21,–,–
AGSSNLPAPERTMAGLSKEPNTLR [VENTX],4.48 ± 0.45,4.71 ± 0.47,–,–
AGTSSHGCWAWPLAGLSVGRSSLT [PXN],2.5 ± 0.26,2.61 ± 0.26,–,–
AHHPLHPHLMQEHMGTNVIVANTM [HNF4A],3.2 ± 0.23,3.21 ± 0.17,–,–
AHRAILVARCEVMAAMFNGNYMEA [RHOBTB3],2.54 ± 0.95,2.08 ± 0.97,–,–
AIEKAFQLWSNVTPLTFTKVSEGQ [MMP1],2.45 ± 0.49,2.3 ± 0.33,–,–
AISPGRFPEALDELPLPPFLQPLD [ANKRD9],3.91 ± 0.32,3.96 ± 0.18,–,–
AKIEVEKLKAIRLRHDLPEYNSL [RAD54B],–,–,3.62 ± 0.21,3.81 ± 0.2
AKVKPFDPKITCKQECLITTFQDV [TPH1],2.75 ± 0.52,2.42 ± 0.52,–,–
ALGAPSKSPSSPQAAFTQQGMEGI [TBX5],4.59 ± 0.37,4.51 ± 0.19,–,–
ALKAAKREQEKKPKKEANQAPKSK [LRRC59],5.24 ± 0.27,5.28 ± 0.18,–,–
ALPSSAPSGPPPPPPSVLGVGPVA [WASL],4.54 ± 0.15,4.82 ± 0.25,–,–
ALQEYSSISEKLSSTNFAMKRDVQ [C8orf76],3.26 ± 0.18,3.48 ± 0.43,–,–
AMDLGFFVVMGVIGGLLGATFNCL [CLCN6],2.68 ± 0.13,3.19 ± 0.056,–,–
AMFTGGMKEQDLMCIKLHGVSKVG [KLHL13],2.54 ± 0.42,2.58 ± 0.33,–,–
ANGEVTYSFRKLPDTQLLKFQLNK [PCDHGA10],2.83 ± 0.33,2.85 ± 0.24,–,–
ANPFQAYLDVDLTLTREQTERLSH [RTN2],3.65 ± 0.3,3.67 ± 0.31,–,–
APALPPGGTDPHGYHQVPGSAAPG [FOXJ1],5.16 ± 0.18,5.38 ± 0.4,–,–
APGEEEEEEEEATNTHPPASLPSQ [CHGA],5.57 ± 0.34,5.71 ± 0.19,–,–
APPLQAETPGSAVDYPLHDLVLHT [TNXB],4.16 ± 0.23,4.17 ± 0.2,–,–
AQEALREKAAALERQLKVMASDHR [LRRC45],4.26 ± 0.27,4.29 ± 0.23,–,–
AQTIPTKDRLEGLLAFKEKRPPRY [AUH],3.73 ± 0.24,4.06 ± 0.24,–,–

Sequence,protein stability index [1],protein stability index [2],protein stability index [3],protein stability index [4]
ARIRSHSWLESCIVGWRCRVGQWV [GMPPB],2.27 ± 0.3,2.262 ± 0.009,–,–
ARKYFERLPGGGWTLRRTKELRKD [DYRK1B],3.66 ± 0.45,3.86 ± 0.44,–,–
ARLKKVLIVGAPIWFRVPYSIISL [PTPN9],3.32 ± 0.79,2.58 ± 1,–,–
ASENHGCEHECVNADGSYLCQCHE [MATN2],5.46 ± 0.17,5.49 ± 0.38,–,–
ASQPVKKQQENATSCSLELIGDLI [WDR41],3.47 ± 0.27,3.45 ± 0.38,–,–
ASSASAFLTAPLLEFLLALYFLFA [CMTM3],2.34 ± 0.79,2.63 ± 0.88,–,–
ASYSGKAADVWSLGVALFTMLAGH [TRIB3],2.99 ± 0.43,2.75 ± 0.54,–,–
ATLFFHYIKTPLFNPEVAKYLKVP [IQUB],2.93 ± 0.21,2.57 ± 0.66,–,–
ATNQCTIDKNRRKSCQACRLRKCY [ESR2],3.39 ± 0.25,3.47 ± 0.18,–,–
ATNSSWVVVFKALVTTHHLMVHGN [SNAP91],3.43 ± 0.31,3.4 ± 0.28,–,–
AVATIVKPLSAIPQPTITKQEVI [HNF4A],–,–,2.43 ± 0.28,2.37 ± 0.19
AVCMFLASKLKETSPLTAEKLCIY [CCND2],2.84 ± 0.61,2.44 ± 0.56,–,–
AVGGRLRLVPGGQRPADVPEPGRA [HAGHL],4.22 ± 0.38,4.16 ± 0.43,–,–
AVIQHRPSRQYATLDVYNPFETRE [SCAMP3],3.42 ± 0.23,3.39 ± 0.27,–,–
AVLYPRFMGTISDVKTNVQLLKGR [CD207],2.49 ± 0.11,2.56 ± 0.16,–,–
AYLELEITLSQEQIQKYTDCLQFY [RTN1],2.57 ± 0.4,3.04 ± 0.86,–,–
CEALEDSDGRQDSPAGELPKTVQQ [MATN2],5.55 ± 0.33,5.56 ± 0.17,–,–
CFQDFKEEKPQENKTWREQYLRLP [ELOA2],3.15 ± 0.35,3.25 ± 0.41,–,–
CGSQLSSTKGSRSNLSTRDASILT [NETO1],2.62 ± 0.2,2.65 ± 0.21,–,–
CPHTPEFSVTGGTEEKSSLLMSCL [RPAIN],3.38 ± 0.22,3.49 ± 0.074,–,–
CPPGGIHQVTVNESLLAPLNVELD [KRT71],4.63 ± 0.29,4.54 ± 0.23,–,–
